Results reported in US20220056125A1 (CEPHALON, published 2022).
Where “and” joins values, the source holds several entries; their conditions need not be identical. Equal entries are not always repeated.

Experiments:
human PAR-2 [1] = target: T1, human PAR-2 (human, UniProt P55085 26-397); experiment: cell-based or functional assay
T1 sequence: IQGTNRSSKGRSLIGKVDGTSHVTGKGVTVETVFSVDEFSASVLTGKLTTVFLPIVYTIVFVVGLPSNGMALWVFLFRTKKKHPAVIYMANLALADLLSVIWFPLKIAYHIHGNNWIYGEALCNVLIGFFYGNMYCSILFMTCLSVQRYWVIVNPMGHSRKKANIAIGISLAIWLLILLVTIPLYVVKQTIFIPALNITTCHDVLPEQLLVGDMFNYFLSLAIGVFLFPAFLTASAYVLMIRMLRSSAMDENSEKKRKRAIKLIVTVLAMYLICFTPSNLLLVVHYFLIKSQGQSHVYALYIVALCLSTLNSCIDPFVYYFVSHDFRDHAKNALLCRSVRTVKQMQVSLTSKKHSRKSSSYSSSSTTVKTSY

human PAR-2 [2] = target: T1, human PAR-2; experiment: cell-based or functional assay; remark: listed apart in the source
human PAR-1 = target: T2, human PAR-1 (human, UniProt P25116 22-425); experiment: flow cytometry, transfected Expi293F cells
T2 construct: also called huPAR-1
T2 sequence: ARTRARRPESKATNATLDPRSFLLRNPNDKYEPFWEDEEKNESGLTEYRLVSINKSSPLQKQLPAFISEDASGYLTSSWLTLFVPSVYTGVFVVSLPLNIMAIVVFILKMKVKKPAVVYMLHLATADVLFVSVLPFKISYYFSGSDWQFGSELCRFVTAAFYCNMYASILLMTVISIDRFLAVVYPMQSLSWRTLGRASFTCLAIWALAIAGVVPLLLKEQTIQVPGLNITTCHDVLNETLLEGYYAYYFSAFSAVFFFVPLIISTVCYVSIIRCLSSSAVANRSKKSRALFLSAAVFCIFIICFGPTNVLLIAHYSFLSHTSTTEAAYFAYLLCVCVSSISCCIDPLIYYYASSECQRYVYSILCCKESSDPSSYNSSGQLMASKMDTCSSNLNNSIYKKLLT
Protocol: Paired heavy and light chains encoded by these sequence pairs were expressed as a full length human IgG4 isotype antibodies and assessed for PAR-2 binding and selectivity by flow cytometry. […] Cells were used for flow cytometric analysis 36-48 hours post-transfection. Use of Nt-PAR-2 as a target allowed antibodies which bound the N-terminal residues of PAR-2 (which comprise the protease-cleavage sites on PAR-2) to be distinguished from antibodies which bound other extracellular sites on PAR-2, such as the PAR-2-activating ligand-binding site(s). Expi293F cells, transiently expressing one of each of the different target proteins were labelled with different intensities of a single fluorphor Encoder dye (Intellicyt) for 10 mins at either 1 in 250 dilution for high intensity and/or 1 in 1500 dilution for moderate intensity, enabling simultaneous analysis of multiple cell populations. After washing the cells were then mixed in an equal ratio with the unlabeled cell type and analyzed for antibody binding.
The cells were plated in 96 well plates at 2×10⁵ cells/well. Following a wash step using Phosphate buffered saline (PBS), the primary antibody (anti-PAR-2 antibody) was added at a concentration of 10 μg/mL in 50 μL of FACS buffer (0.5% w/v BSA in PBS) to each well and incubated for 10-15 mins. Following a wash step, secondary antibody (anti-human Fc-FITC) was added to the wells at 1:200 dilution in 50 μL for 10-15 mins. Following a washing step, the cells were re-suspended in fluorescence-activated cell sorting (FACS) buffer. The flow cytometry analysis was performed on an Intellicyt iQue screener. Gates were drawn around the different intensities of encoder dye-positive cells and these populations were analyzed separately from each other and the unlabeled cells for binding by the primary antibody.

human PAR-2 [3] = target: T1, human PAR-2; experiment: cell-based or functional assay; remark: listed apart in the source
human PAR-2 [4] = target: T1, human PAR-2; experiment: cell-based or functional assay; remark: listed apart in the source

Binder | IC50, PAR-2 β-arrestin cell assay (human PAR-2 [1]) [nM] | IC50, PAR-2 calcium flux assay (trypsin EC80) (human PAR-2 [2]) [nM] | binding result (human PAR-1) | PAR-2 calcium flux cell assay IC50 (human PAR-2 [3]) [nM] | PAR-2 β-arrestin cell assay IC50, 1 µM SLIGKV (human PAR-2 [3]) [nM] | PAR-2 β-arrestin cell based assay IC50, 2 µM SLIGKV (human PAR-2 [4])
Ab1 (antibody, human IgG4, V domains shown, also called Anti-PAR-2 antibody # 1) VH: EVQLVEFGGGLVQPKGSLKLSCAASGFTFNTNAMHWVRQAPGKGLEWVARIGSKSSYFATYYADSVKDRFTISRDDSRSMFYLQMNNLKTEDTAMYYCVREDYYGSSFDLWGQGTTLTVSS VL: QIVLSQSPAILSASPGEKVTMTCRASSSLPYIHWYQQKPGSSPRPWIYATSNLASGVPARFSGRGSGTSYSLTISRMEAEDAATYYCQQWSSTPPTFGGGSKLEIK | 8.4 | 50.5 | no binding (tested: 10 µg/mL) | – | – | –
Ab309 (antibody, human IgG4, V domains shown) VH: QVQLKESGPGLVQPSQTLSLTCTVSGFSLNSYGVIWARQPPGKGLDWMGVIWGNGNTYYNSDLKSRLSISRDTSKSQVFLKMNNLQAEDTALYFCARWRGYKDYPFDYWGQGVMVTVSS VL: DIQMTQSPSFLSASVGDRVTFNCKASQNIYKYLDWYQQKLGEAPKLLIYNTNSLHTGIPSRFSGSGFGTDFTLTISSLQPEDVATYFCLQHNSGWTFGGGTKLELR | 1.6 | 6.7 | no binding (tested: 10 µg/mL) | 8.6 | 4.4 | –
Ab20 (antibody, human IgG4, V domains shown, also called Anti-PAR-2 antibody # 20) VH: EVQLVESGGGLVQPKGSLKLSCAASGFTFNIYAMHWVRQAPGKGLEWVARIGSKSSNYATNYADSVKDRFTISRDDSQSMLCLQMNNLKTEDTAMYYCVREDYYGNSFDSWGQGTTLAVSS VL: QIVLSQSPAILSASPGEKVTMTCRTSSSVIYIHWYQQKSGSSPKPWIYATSNLASGVPTRFSGSGSGTSYSLTISRVEAEDAATYYCHHWRSNPPTFGGGTKLEIK | 10.7 | 73.2 | no binding (tested: 10 µg/mL) | – | – | –
Ab39 (antibody, human IgG4, V domains shown, also called Anti-PAR-2 antibody # 39) VH: EVQLVESGGGLVQPKGSLKLSCAASGFTFNTYAMHWVRQAPGKGLEWVARIGSKSSYYATYYADSVKDRFTISRADSQSMLYLQMNNLKTEDTAIYYCVREDYYGCSFDYWGQGTTLTVSS VL: QIVLSQSPVILSTSPGEKVTMTCRANSRVIYVHWYQQKPGSSPKPWIFATSNLASGVPSRFSGSGSGTSYSLTISRVETEDAATYYCQHCGNNPPTFGSGTKLEIK | 4.9 | 29 | no binding (tested: 10 µg/mL) | – | – | –
Ab77 (antibody, human IgG4, V domains shown, also called Anti-PAR-2 antibody # 77) VH: EVQLVGSGGGLVQPKGSLKLSCAASGFTFNTYAMHWVRQAPGKGLEWVARIGSKSSYYATYYADSVKDRFTISRDDSQSMLYLQMNNLKTEDTAMYYCVREDYYGSSYDYWGQGTTLTVSS VL: DIVMTQSHKFMSISVGDRVSITCKASQDVGTAVAWHQQKAGQSPKLLIYWASARHTGVPDRFTGSGSGTDFTLTISNVQSEDLTDFFCQQYSNYPFTFGSGTKLEIK | 16.5 | 169 | no binding (tested: 10 µg/mL) | – | – | –
309-4e (antibody, human IgG4 S228P, kappa, V domains shown) VH: QVQLVQSGAEVKKPGSSVKVSCKASGFSLNSYGVIWVRQAPGQGLEWMGVIWGNGNTYYNQKFQGRVTITADESTSTAYMELSSLRSEDTAVYYCARWRGYKDYPFDYWGQGTLVTVSS VL: EIVLTQSPATLSLSPGERATLSCKASQNIYKYLDWYQQKPGQAPRLLIYNTNSLHTGIPARFSGSGSGRDFTLTISSLEPEDFAVYYCLQHNSGWTFGGGTKVEIKR | – | – | – | 7.6 | 5.8 | 2.1 nM and 5.9 nM
309-6e (antibody, human IgG4 S228P, kappa, V domains shown) VH: EVQLVESGGGLVQPGGSLRLSCAASGFSLNSYGVIWVRQAPGKGLEWVSVIWGNGNTYYNDSVKGRFTISRDNSKNTLYLQMNSLRAEDTAVYYCARWRGYKDYPFDYWGQGTLVTVSS VL: EIVLTQSPATLSLSPGERATLSCKASQNIYKYLDWYQQKPGQAPRLLIYNTNSLHTGIPARFSGSGSGRDFTLTISSLEPEDFAVYYCLQHNSGWTFGGGTKVEIKR | – | – | – | 12.7 | 5.6 | –
309-11e (antibody, human IgG4 S228P, kappa, V domains shown) VH: QVQLQESGPGLVKPSETLSLTCTVSGFSLNSYGVIWIRQPPGKGLEWIGVIWGNGNTYYNPSLKSRVTISVDTSKNQFSLKLSSVTAADTAVYYCARWRGYKDYPFDYWGQGTLVTVSS VL: EIVLTQSPATLSLSPGERATLSCKASQNIYKYLDWYQQKPGQAPRLLIYNTNSLHTGIPARFSGSGSGRDFTLTISSLEPEDFAVYYCLQHNSGWTFGGGTKVEIKR | – | – | – | 22.8 | 6.1 | –
309-12e (antibody, human IgG4 S228P, kappa, V domains shown) VH: QVQLQQWGAGLLKPSETLSLTCAVYGFSLNSYGVIWIRQPPGKGLEWIGVIWGNGNTYYNPSLKSRVTISVDTSKNQFSLKLSSVTAADTAVYYCARWRGYKDYPFDYWGQGTLVTVSS VL: EIVLTQSPATLSLSPGERATLSCKASQNIYKYLDWYQQKPGQAPRLLIYNTNSLHTGIPARFSGSGSGRDFTLTISSLEPEDFAVYYCLQHNSGWTFGGGTKVEIKR | – | – | – | 8.3 | 2.3 | –
309-6i (antibody, human IgG4 S228P, kappa, V domains shown) VH: EVQLVESGGGLVQPGGSLRLSCAASGFSLNSYGVIWVRQAPGKGLEWVSVIWGNGNTYYNDSVKGRFTISRDNSKNTLYLQMNSLRAEDTAVYYCARWRGYKDYPFDYWGQGTLVTVSS VL: DIQMTQSPSSLSASVGDRVTITCKASQNIYKYLDWYQQKPGKAPKRLIYNTNSLHTGVPSRFSGSGSGTEFTLTISSLQPEDFATYYCLQHNSGWTFGGGTKVEIKR | – | – | – | – | 40.6 | –
